What was measured:
[1] = target: activin Type II receptors (ActRIIA and ActRIIB) on A204/CAGAx12-Luc cells; experiment: cell-based or functional assay
[2] = target: Activin A (R&D Systems, #338-AC) (human) (UniProt P08476); experiment: SPR blocking: 5 nM Activin A + 15 nM binder over hActRIIB-hFc (Control 4) surface
[3] = target: Activin A (R&D Systems, #338-AC) (human) (UniProt P08476); experiment: SPR blocking: 5 nM Activin A + 30 nM binder over hActRIIB-hFc (Control 4) surface
[4] = target: Activin A (R&D Systems, #338-AC) (human) (UniProt P08476); experiment: SPR blocking: 5 nM Activin A + 60 nM binder over hActRIIB-hFc (Control 4) surface
[5] = target: Activin A (R&D Systems, #338-AC) (human) (UniProt P08476); experiment: SPR blocking: 5 nM Activin A + 0.00 nM binder over hActRIIB-hFc (Control 4) surface
[6] = target: Activin A (R&D Systems, #338-AC) (human) (UniProt P08476); experiment: SPR blocking: 5 nM Activin A + 0.94 nM binder over hActRIIB-hFc (Control 4) surface
[7] = target: Activin A (R&D Systems, #338-AC) (human) (UniProt P08476); experiment: SPR blocking: 5 nM Activin A + 1.88 nM binder over hActRIIB-hFc (Control 4) surface
[8] = target: Activin A (R&D Systems, #338-AC) (human) (UniProt P08476); experiment: SPR blocking: 5 nM Activin A + 3.75 nM binder over hActRIIB-hFc (Control 4) surface
[9] = target: Activin A (R&D Systems, #338-AC) (human) (UniProt P08476); experiment: SPR blocking: 5 nM Activin A + 7.50 nM binder over hActRIIB-hFc (Control 4) surface
[10] = target: Activin A (homodimer of two inhibin betaA subunits) (human) (UniProt P08476); experiment: cell-based or functional assay
Activin A (homodimer of two inhibin betaA subunits) (human), sequence (P08476 311-426 limits assumed): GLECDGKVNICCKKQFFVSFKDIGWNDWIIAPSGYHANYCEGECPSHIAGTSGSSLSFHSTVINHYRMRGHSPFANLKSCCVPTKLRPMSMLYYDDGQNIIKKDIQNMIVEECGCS

Activin A (R&D Systems, #338-AC) (human), sequence (P08476 311-426 limits assumed): as above

Substance | activation of the A204/CAGAx12-Luc cell line (Smad 2/3-luciferase reporter), EC50 [1] [nM] | % bound RU w/ no inhibitor [2] [%] | % bound RU w/ no inhibitor [3] [%] | % bound RU w/ no inhibitor [4] [%] | % bound RU w/ no inhibitor [5] [%] | % bound RU w/ no inhibitor [6] [%] | % bound RU w/ no inhibitor [7] [%] | % bound RU w/ no inhibitor [8] [%] | % bound RU w/ no inhibitor [9] [%] | other results
Activin AB (heterodimer of one betaA subunit and one betaB subunit) (from UniProt P08476 311-426; P09529 293-407) (ligand) | 0.019 | – | – | – | – | – | – | – | – | –
Activin AC (heterodimer of one betaA subunit and one betaC subunit) (from UniProt P55103 237-352) (ligand) | 4.4 | – | – | – | – | – | – | – | – | –
Control 3 (murine anti-Activin A monoclonal antibody from R&D Systems, catalog number MAB3381) | – | 2 | 1 | 2 | 100 | 135 | 133 | 120 | 33 | –
GDF11 (from UniProt O95390 299-407) (ligand) | – | – | – | – | – | – | – | – | – | activation of A204/CAGAx12-Luc cells, EC50 [1]: 0.084 nM; activation of A204/CAGAx12-Luc cells, EC50 (separate day) [1]: 0.166 nM
isotype control antibody | – | 110 | 111 | 115 | 100 | 105 | 105 | 104 | 107 | –
isotype control antibody (Example 7) | – | – | – | – | – | – | – | – | – | action potential duration, cardiomyocytes chronically treated with 1 nM activin A plus isotype control [10]: 0.56 s; calcium flux falling time, cardiomyocytes treated with activin A plus isotype control [10]: 0.75 s; calcium flux rising time, cardiomyocytes treated with activin A plus isotype control [10]: 0.36 s; field potential amplitude, cardiomyocytes chronically exposed to activin A plus 25 nM isotype control [10]: 42.9 µV; field potential downstroke velocity, cardiomyocytes exposed to activin A plus 25 nM isotype control [10]: 0.019 V/sec; peak calcium handling amplitude, cardiomyocytes treated with activin A plus isotype control [10]: 484 RFU

— patent US20220056119A1
